“Also recorded” adds a separate entry of the source.
B1: E02-GL-SG3249: clone E02-GL (Maia heavy chain backbone) conjugated to the PBD cytotoxin SG3249 (conjugate)
heavy: QVQLQQWGAGLLKPSETLSLACTVYGGSFSGYYWNWIRQPPGKGLEWIGEINHSGSTSYNPSLKSRVTISVDTSKNQFSLKLSSVTAADTAVYYCARVLYNWNVDSWGQGTLVTVSSASTKGPSVFPLAPSSKSTSGGTAALGCLVKDYFPEPVTVSWNSGALTSGVHTFPAVLQSSGLYSLSSVVTVPSSSLGTQTYICNVNHKPSNTKVDKRVEPKSCDKTHTCPPCPAPELLGGPSCVFLFPPKPKDTLMISRTPEVTCVVVDVSHEDPEVKFNWYVDGVEVHNAKTKPREEQYNSTYRVVSVLTVLHQDWLNGKEYKCKVSNKALPAPIEKTISKAKGQPREPQVYTLPPSREEMTKNQVSLTCLVKGFYPSDIAVEWESNGQPENNYKTTPPVLDSDGSFFLYSKLTVDKSRWQQGNVFSCSVMHEALHNHYTQKSLSLSPGK
light: DIQMTQSPSSLSASVGDRVTITCRASQDIRNDVGWYQQKPGKAPKRLIYAASRLQSGVPSRFSGSGSGTEFTLTISSLQPEDFATYYCLQHNSYPRTFGQGTKVEIKRTVAAPSVFIFPPSDEQLKSGTASVVCLLNNFYPREAKVQWKVDNALQSGNSQESVTEQDSKDSTYSLSSTLTLSKADYEKHKVYACEVTHQGLSSPVTKSFNRGEC
B2: E02-GL: germlined ZY0EQD-E02, VH SEQ ID NO: 45, VL SEQ ID NO: 34; antibody intermediate of E02-GL-SG3932 (antibody, V domains shown)
VH: QVQLQQWGAGLLKPSETLSLACTVYGGSFSGYYWNWIRQPPGKGLEWIGEINHSGSTSYNPSLKSRVTISVDTSKNQFSLKLSSVTAADTAVYYCARVLYNWNVDSWGQGTLVTVSS
VL: DIQMTQSPSSLSASVGDRVTITCRASQDIRNDVGWYQQKPGKAPKRLIYAASRLQSGVPSRFSGSGSGTEFTLTISSLQPEDFATYYCLQHNSYPRTFGQGTKVEIK

Tests used:
[1] = system: HCC1569 cells; test: Western blot DNA damage response; assay type: cell-based; conditions: 100 ng/ml ADC, 100 pM SG3199
Method: Following treatment of HCC1569 cells with E02-GL-SG3249, and SG3199 as a control (at 100 ng/ml and 100 pM, respectively), lysate was prepared and subjected to western blot analysis with antibodies to pATR, ATR, pChk1, Chk1, pRPA32, RPA32, pATM, ATM (all involved in ATR signalling), pChk2, ChK2, pKAP1, KAP1 (all involved in ATM signalling), pDNA-PK, DNA-PK, pH2AX, H2AX, pBRCA1, BRCA1 (all involved in DNA double strand break), pFANCD2 and GAPDH (load control). Negative controls were PBS treatment alone.

[2] = system: MDA-MB-468; test: E02-GL MESF on cell line; assay type: cell-based, human
Method: A number of cancer cell lines were treated with clone E02-GL-SG3249 (e.g. conjugated to a cytotoxin), as outlined in Table 15.

[3] = system: SK-BR-3 cells; test: Flow cytometry binding; assay type: cell-based, human; conditions: 31, 156 and 78 ng/ml; compared with 1D11
Method: (§1) Cells were detached from tissue culture flasks by accutase (Gibco, Paisley, UK), pelleted by centrifugation, and resuspended in ice cold DPBS (Gibco, Paisley, UK). Viable cells were counted by trypan blue exclusion using a haemocytometer. Cell densities were adjusted to 5×10^6 cells/mL in DPBS. 100 μL of the cell suspension (5×10^5 cells) was added to 96-well V-bottomed plates and placed on ice. Then, the cells were incubated with Live/Dead fixable violet stain (ThermoFisher Scientific, Loughborough, UK) for 20 minutes on ice. Following a wash with flow cytometry buffer (eBiosciences, Hatfield, UK), the cells were incubated on ice for 30 minutes in 100 μL flow cytometry buffer alone (unstained control cells) or supplemented with AF647-labelled anti-B7H4 antibodies (e.g. E02-GL or 1D11) or isotype R347 at a concentration ranging from 10 µg/ml to 78 ng/ml. […] FlowJo cytometry analysis software (Treestar, Ashland, OR, USA) was used to quantify antibody binding to cells as follows. Live, single cells were gated based on forwards scatter, side scatter, and Live/Dead violet fluorescence intensity and the AF647 geometric mean fluorescence intensity (MFI) was determined. […]

[4] = system: hB7-H4 expressing HT29 cells; test: Flow cytometry binding; assay type: cell-based, human; conditions: 31, 156 and 78 ng/ml; compared with 1D11
Method: as §1

[5] = system: non-transduced HEK 293 Jump In TREX cells; test: Flow cytometry binding; assay type: cell-based; conditions: B7-H4-negative
Excerpt: (§2) Flow cytometry was used to measure binding of antibody E02-INT to non-transduced HEK 293 Jump In TREX cells and to HEK 293 Jump In TREX cells stably expressing human, murine, or cynomolgus monkey B7-H4.

[6] = system: HEK 293 Jump In TREX cells stably expressing murine B7-H4; test: Flow cytometry binding; assay type: cell-based; conditions: listed as E02-INT
Excerpt: as §2

[7] = system: HEK 293 Jump In TREX cells stably expressing cynomolgus monkey B7-H4; test: Flow cytometry binding; assay type: cell-based
Excerpt: as §2

[8] = system: HEK 293 Jump In TREX cells stably expressing human B7-H4; test: Flow cytometry binding; assay type: cell-based
Excerpt: as §2

[9] = system: HT29; test: E02-GL MESF on cell line; assay type: cell-based, human; conditions: HT29, B7-H4 negative
[10] = system: HT29 hB7H4 clone 44; test: E02-GL MESF on cell line; assay type: cell-based, human
[11] = system: HT29-huB7-H4 Clone 26 cells; test: Confocal colocalization with LAMP1 and EEA1; assay type: cell-based, human; conditions: 24 hours, 5 μg/mL
Excerpt: Confocal microscopy was used to determine intracellular trafficking of E02-INT by measuring co-localization with the early endosomal marker, Early Endosome Antigen 1 (EEA1) and the lysosomal marker, lysosomal-associated membrane protein 1 (LAMP1).

Molecule | DNA damage response signalling (ATR, ATM, double strand break markers) [1] | E02-GL MESF [2] | binding to B7-H4 expressed on cancer cells [3] | binding to B7-H4 expressed on cancer cells [4] | cellular binding [5] | cellular binding [6] | cellular binding [7] | cellular binding [8] | E02-GL MESF [9] | E02-GL MESF [10] | intracellular trafficking after internalization [11]
B1 | leads to double strand DNA breaks | – | – | – | – | – | – | – | – | – | –
B2 | – | 92,157 MESF | superior binding | superior binding | did not bind | bound; also recorded: reduced compared to cells expressing human or cynomolgus monkey B7-H4 | bound | bound | 2,101 MESF | 147,125 MESF | trafficked to the lysosomal compartment

Source: patent US20240239894A1, “THERAPEUTIC BINDING MOLECULES” (MedImmune Limited, priority 2020, published 2024)
